Conditions in all cases: both partners purified
Assay [1] deals with T1, monocyte chemo-attractant protein-1 (MCP-1) (Homo sapiens (Human)., UniProt P13500).
T1 construct: MCP-1 (monocyte chemo-attractant protein-1), chemokine; synthetic gene optimised for E. coli in pET26b; Probably the mature human chemokine, as in PDB 2BDN; also called monocyte chemotactic protein-1; antigen; source: E. coli Rosetta2 (DE3), purified (Ni-NTA, SEC)
In words: SPR; temperature dependence of KD, van't Hoff approximation; MCP-1 immobilised, scFv injected.

Assay [2] deals with T1, monocyte chemo-attractant protein-1 …. In words: SPR; Biacore T200; MCP-1 immobilised on a CM5 chip by amine coupling (~220 RU), scFv injected at 30 µl/min; PBS with 0.005% Tween-20; 25°C; global fit, 1:1 Langmuir model; KD from koff/kon.
The target is the same in assay [3]. The assay is described as follows: SPR; ionic strength series: MCP-1 immobilised, scFv injected; running buffer with 137 mM NaCl; 25°C.
For assay [4] the target is unchanged. The assay is described as follows: SPR; ionic strength series: MCP-1 immobilised, scFv injected; running buffer with 500 mM NaCl; 25°C.

Substitutions are numbered along the chain they refer to. Names may count otherwise.

The results in this text go back to article PMC3903617 (PLoS ONE, 2014).

B1: wild-type 11K2 scFv (scFv, V domains shown)
VH: EVQLQQSGAELVKAGASVKLSCPASGLNIKDTYMHWVKQRPEQGLEWIGRIDPANGNTKFDPKFQGKATITADTSSNTAYLQLSSLTSEDTAVYYCARGVFGFFDYWGQGTTLTVSS
VL: DIQMTQSSSSFSVSLGDRVTITCKATEDIYNRLAWYQQKPGSAPRLLISGATSLETGVPSRFSGSGSGKDYTLSITSLQTEDVATYYCQQFWSAPYTFGGGTKLEIK
notes: VH of antibody 11K2; also the variable domain of the heavy chain of the 11K2 Fab in PDB 2BDN; linker of the scFv; VL of antibody 11K2; also the variable domain of the light chain of the 11K2 Fab in PDB 2BDN; also called WT; scFv 11K2
With B1, the dH in assay [1] was -7.3 kcal/mol. For the same molecule, in assay [2], the dissociation constant (Kd) stood at 0.8 nM, the koff amounted to 0.0001 s⁻¹ and the kon came to 140000 M⁻¹ s⁻¹.

B2: 11K2 scFv mutein H-L27K (scFv, V domains shown)
VH: B1 VH with L27K
VL: B1 VL
notes: PDB 2BDN heavy chain) with the stated change; PDB 2BDN light chain)
In assay [2], B2 displayed a Kd of 3.5 nM, a koff of 0.00039 s⁻¹ and a kon of 110000 M⁻¹ s⁻¹.

B3: 11K2 scFv mutein L-S53E (scFv, V domains shown)
VH: B1 VH
VL: B1 VL with S53E
notes: PDB 2BDN heavy chain; PDB 2BDN light chain) with the stated change
Take B3: in assay [1], the dH is -15.1 kcal/mol. Besides, in assay [2], the affinity, expressed as Kd, was 0.19 nM; the koff stood at 1.4e-05 s⁻¹; the on-rate (kon) came out at 73000 M⁻¹ s⁻¹.

B4: 11K2 scFv mutein L-T56E (scFv, V domains shown)
VH: B1 VH
VL: B1 VL with T56E
notes: as for B3
In the case of B4, the dH in assay [1] was -14.5 kcal/mol. In assay [2], this molecule displayed a Kd of 0.25 nM, a koff of 2.6e-05 s⁻¹ and a kon of 100000 M⁻¹ s⁻¹.

B5: 11K2 scFv mutein L-N31K (scFv, V domains shown)
VH: B1 VH
VL: B1 VL with N31K
notes: PDB 2BDN heavy chain; PDB 2BDN light chain) with the stated change; also called L-D31K (printed once in the results)
Regarding B5, in assay [2], binding was characterised by a dissociation constant (Kd) of 290 nM, the koff came out at 0.098 s⁻¹ and the kon was determined as 340000 M⁻¹ s⁻¹.

B6: 11K2 scFv mutein H-L27R (scFv, V domains shown)
VH: B1 VH with L27R
VL: B1 VL
notes: as for B2
In assay [2], B6 showed a Kd of 2.4 nM, a koff of 0.00033 s⁻¹ and a kon of 140000 M⁻¹ s⁻¹.

B7: 11K2 scFv mutein H-N28Q (scFv, V domains shown)
VH: B1 VH with N28Q
VL: B1 VL
notes: as for B2
In assay [2], B7 yielded a Kd of 8.5 nM, a koff of 0.0019 s⁻¹ and a kon of 220000 M⁻¹ s⁻¹.

B8: 11K2 scFv mutein L-N31R (scFv, V domains shown)
VH: B1 VH
VL: B1 VL with N31R
notes: PDB 2BDN heavy chain; PDB 2BDN light chain) with the stated change; also called L-D31R (printed once in the results)
In assay [3], B8 had a Kd of 0.36 nM and a kon of 170000 M⁻¹ s⁻¹. In assay [4], the Kd is 0.47 nM. In assay [1], the dH is -25.6 kcal/mol. Also, in assay [2], binding was characterised by a dissociation constant (Kd) of 0.17 nM, the koff came to 2.2e-05 s⁻¹ and the kon worked out at 130000 M⁻¹ s⁻¹.

B9: 11K2 scFv mutein H-D31E (scFv, V domains shown)
VH: B1 VH with D31E
VL: B1 VL
notes: as for B2
For the molecule B9, in assay [2], binding was put at a Kd of 5 nM, the koff stood at 0.00015 s⁻¹ and the kon was determined as 30000 M⁻¹ s⁻¹.

B10: 11K2 scFv mutein L-S53D (scFv, V domains shown)
VH: B1 VH
VL: B1 VL with S53D
notes: as for B3
Take B10: the dH in assay [1] was -13.3 kcal/mol. In assay [2], the Kd was found to be 0.61 nM, the koff was found to be 5.5e-05 s⁻¹ and the kon was found to be 90000 M⁻¹ s⁻¹.

B11: 11K2 scFv mutein L-Y30K (scFv, V domains shown)
VH: B1 VH
VL: B1 VL with Y30K
notes: as for B3
In assay [2], B11 displayed a Kd of 2.5 nM, a koff of 0.00031 s⁻¹ and a kon of 130000 M⁻¹ s⁻¹.

B12: 11K2 scFv mutein L-T56D (scFv, V domains shown)
VH: B1 VH
VL: B1 VL with T56D
notes: as for B3
Turning to B12, the dH in assay [1] was -11.7 kcal/mol. In assay [2], this molecule came in with a Kd of 0.39 nM, a koff of 8.6e-05 s⁻¹ and an on-rate constant (kon) of 220000 M⁻¹ s⁻¹.
